In patent US6949624:

Columns and labels:
[1] = molecular target: AML1/ETO chimeric fusion protein (UniProt Q01196); assay: cell-based or functional assay
[2] = molecular target: human nuclear receptor co-repressor (HuN-CoR), 2,440 amino-acid polypeptide (human) (UniProt O75376); assay: cell-based or functional assay
UniProt O75376, sequence (O75376 other isoform, or with tags, fused parts or gaps limits assumed): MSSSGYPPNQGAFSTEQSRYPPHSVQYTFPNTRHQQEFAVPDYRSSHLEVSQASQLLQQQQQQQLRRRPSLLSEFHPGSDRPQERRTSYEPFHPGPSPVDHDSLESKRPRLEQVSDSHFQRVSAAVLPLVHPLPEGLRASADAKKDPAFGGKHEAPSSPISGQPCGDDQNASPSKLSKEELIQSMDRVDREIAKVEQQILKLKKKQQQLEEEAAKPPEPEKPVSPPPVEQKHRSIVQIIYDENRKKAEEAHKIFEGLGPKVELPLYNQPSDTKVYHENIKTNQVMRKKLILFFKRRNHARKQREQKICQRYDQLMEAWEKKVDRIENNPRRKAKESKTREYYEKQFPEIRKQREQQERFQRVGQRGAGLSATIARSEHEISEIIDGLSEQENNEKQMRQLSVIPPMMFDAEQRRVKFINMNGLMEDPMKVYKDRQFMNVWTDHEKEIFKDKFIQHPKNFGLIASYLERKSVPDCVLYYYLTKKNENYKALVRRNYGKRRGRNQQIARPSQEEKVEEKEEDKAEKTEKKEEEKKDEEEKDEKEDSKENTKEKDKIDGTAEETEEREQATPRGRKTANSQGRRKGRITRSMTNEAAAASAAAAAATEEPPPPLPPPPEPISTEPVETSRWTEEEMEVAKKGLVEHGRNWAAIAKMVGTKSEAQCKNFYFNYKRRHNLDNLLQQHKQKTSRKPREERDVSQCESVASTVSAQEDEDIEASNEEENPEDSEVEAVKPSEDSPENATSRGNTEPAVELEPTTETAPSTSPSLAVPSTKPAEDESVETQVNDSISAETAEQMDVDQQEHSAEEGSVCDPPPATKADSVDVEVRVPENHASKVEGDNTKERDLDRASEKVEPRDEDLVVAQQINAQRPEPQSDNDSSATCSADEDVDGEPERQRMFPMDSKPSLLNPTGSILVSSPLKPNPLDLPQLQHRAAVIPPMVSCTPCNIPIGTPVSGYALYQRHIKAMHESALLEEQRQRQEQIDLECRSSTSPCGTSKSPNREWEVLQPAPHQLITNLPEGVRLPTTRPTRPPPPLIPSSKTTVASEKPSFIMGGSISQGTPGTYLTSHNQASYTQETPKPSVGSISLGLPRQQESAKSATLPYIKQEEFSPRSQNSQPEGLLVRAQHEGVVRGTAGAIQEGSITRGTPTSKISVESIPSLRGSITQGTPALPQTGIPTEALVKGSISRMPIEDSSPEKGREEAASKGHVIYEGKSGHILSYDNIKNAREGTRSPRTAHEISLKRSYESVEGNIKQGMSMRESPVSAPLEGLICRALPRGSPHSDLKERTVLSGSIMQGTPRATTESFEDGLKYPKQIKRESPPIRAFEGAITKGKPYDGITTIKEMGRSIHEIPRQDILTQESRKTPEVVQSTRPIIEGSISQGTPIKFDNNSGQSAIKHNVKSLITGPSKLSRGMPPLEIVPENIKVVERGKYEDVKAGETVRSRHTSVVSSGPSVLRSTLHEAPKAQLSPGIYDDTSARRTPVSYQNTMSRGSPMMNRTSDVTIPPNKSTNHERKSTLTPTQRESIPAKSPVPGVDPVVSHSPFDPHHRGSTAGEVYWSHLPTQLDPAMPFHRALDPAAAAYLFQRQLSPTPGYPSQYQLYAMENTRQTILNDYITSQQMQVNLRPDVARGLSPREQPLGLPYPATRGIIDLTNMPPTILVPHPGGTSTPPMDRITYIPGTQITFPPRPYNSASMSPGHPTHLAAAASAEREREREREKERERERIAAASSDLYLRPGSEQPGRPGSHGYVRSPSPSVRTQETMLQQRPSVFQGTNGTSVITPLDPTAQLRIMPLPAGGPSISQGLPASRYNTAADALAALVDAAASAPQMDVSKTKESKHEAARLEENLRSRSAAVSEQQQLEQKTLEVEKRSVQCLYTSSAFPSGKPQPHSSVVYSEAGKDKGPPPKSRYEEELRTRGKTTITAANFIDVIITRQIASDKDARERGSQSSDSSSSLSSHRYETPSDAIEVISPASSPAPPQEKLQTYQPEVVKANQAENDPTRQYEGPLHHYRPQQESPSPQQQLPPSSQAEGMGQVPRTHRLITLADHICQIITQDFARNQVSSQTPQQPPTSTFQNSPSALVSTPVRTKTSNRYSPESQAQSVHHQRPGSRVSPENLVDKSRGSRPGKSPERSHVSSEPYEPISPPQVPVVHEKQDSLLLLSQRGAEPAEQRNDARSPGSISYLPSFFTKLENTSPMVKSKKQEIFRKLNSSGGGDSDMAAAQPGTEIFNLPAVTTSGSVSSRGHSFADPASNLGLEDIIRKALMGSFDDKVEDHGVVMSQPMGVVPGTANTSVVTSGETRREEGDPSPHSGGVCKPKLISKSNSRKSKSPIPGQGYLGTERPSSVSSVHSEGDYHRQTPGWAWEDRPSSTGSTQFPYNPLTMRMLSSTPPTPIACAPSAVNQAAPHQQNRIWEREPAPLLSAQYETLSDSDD

UniProt Q01196, sequence (Q01196 other isoform, or with tags, fused parts or gaps mutant limits assumed): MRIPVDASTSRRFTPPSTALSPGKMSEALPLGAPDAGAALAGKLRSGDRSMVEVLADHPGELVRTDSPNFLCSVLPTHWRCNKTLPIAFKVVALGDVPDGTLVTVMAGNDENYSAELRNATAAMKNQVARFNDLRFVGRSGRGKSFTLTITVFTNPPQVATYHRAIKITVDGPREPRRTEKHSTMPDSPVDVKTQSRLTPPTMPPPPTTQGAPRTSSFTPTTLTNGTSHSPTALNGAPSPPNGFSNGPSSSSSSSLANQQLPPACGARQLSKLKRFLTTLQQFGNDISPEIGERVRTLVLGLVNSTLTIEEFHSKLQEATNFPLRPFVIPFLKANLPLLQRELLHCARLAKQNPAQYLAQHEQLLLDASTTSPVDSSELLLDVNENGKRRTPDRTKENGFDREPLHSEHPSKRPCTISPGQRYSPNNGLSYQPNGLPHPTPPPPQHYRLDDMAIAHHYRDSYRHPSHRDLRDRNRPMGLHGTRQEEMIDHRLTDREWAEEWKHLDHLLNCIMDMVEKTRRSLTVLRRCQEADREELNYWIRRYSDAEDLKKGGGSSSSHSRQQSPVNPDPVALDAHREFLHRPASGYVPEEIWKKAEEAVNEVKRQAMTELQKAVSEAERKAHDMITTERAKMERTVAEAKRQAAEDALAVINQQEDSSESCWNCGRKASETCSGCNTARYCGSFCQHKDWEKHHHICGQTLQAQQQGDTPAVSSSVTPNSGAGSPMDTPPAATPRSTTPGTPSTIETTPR

transduced Kasumi-1 cells positive for CD13 expression (flow cytometry) [1] | transduced Kasumi-1 cells positive for annexin staining (flow cytometry) [1] | transduced Kasumi-1 cells positive for CD13 expression (flow cytometry) [2] | transduced Kasumi-1 cells positive for annexin staining (flow cytometry) [2] | Substance
87% | 97% |  |  | ETO-interacting domain of N-CoR (NCoREID) fused with enhanced green fluorescent protein
 |  | 89% | 97% | zinc-finger domains of ETO (ETOZn) fused with enhanced green fluorescent protein (from UniProt Q06455 510-556)
